Measured values published in the supplement of paper PMC9170038.

Test system: MS2 coat protein
Assay: apparent KD of MS2 coat protein; designed switch direction (-1 OFF switch, 1 ON switch): 1; higher = weaker reporter binding
Outline: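 The reported apparent KD is a per-design median over clusters, from curve fits of normalised cluster fluorescence. Protein titrations used SNAP-549-labelled MS2 coat protein, doubled from 0.7 or 1.5 nM to 3 µM, in Tris-HCl pH 7.5 buffer with KCl, MgCl2, BSA, DTT, tRNA and Tween-20, with no input, 200 uM small-molecule ligand, or an oligonucleotide input. The RNA switches were transcribed on Illumina chips by stalled E. coli RNA polymerase.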

[1] = input ligand: microRNA oligo, concentration not stated
[2] = Eterna round: R95, input ligand: microRNA oligo, concentration not stated
[3] = Eterna round: R95, input ligand: FMN 200 uM
[4] = Eterna round: R95, input ligand: none

## GCUCGACGUAUGGCCUACAUGAGGAUCACCCAUGUGACUGGGCAGGAUAUCUAAAUGCAGAAUGUAGAGAAGGGCCCGUCGAGC [SameState NG3 #49] (Eterna round: R96, puzzle: Same State NG 3)
Input ligand: FMN 200 uM
  apparent KD of MS2 coat protein: 163 nM
[1]
  apparent KD of MS2 coat protein: 99.6 nM
Input ligand: none
  apparent KD of MS2 coat protein: 188 nM

## GCUCGAUGAGAGUCCUACAUGAGGAUCACCCAUGUAUGUGGGCAGGAUAUCUACAUGCAGAAUGUAGAGAAGGGCCCGUCGAGC [SameState NG3 #57] (Eterna round: R96, puzzle: Same State NG 3)
Input ligand: FMN 200 uM
  apparent KD of MS2 coat protein: 35.2 nM
[1]
  apparent KD of MS2 coat protein: 106 nM
Input ligand: none
  apparent KD of MS2 coat protein: 187 nM

## GCUCGUAUGAUGACCGACAUGAGGAUCACCCAUGUAUGUUGGUAGGAUAUCUAUAUUAAGGAUAUAGAGAAGGGCCGAACGAGC [SameState NG3 #15] (Eterna round: R96, puzzle: Same State NG 3)
Input ligand: FMN 200 uM
  apparent KD of MS2 coat protein: 26.5 nM
[1]
  apparent KD of MS2 coat protein: 33.6 nM
Input ligand: none
  apparent KD of MS2 coat protein: 40.1 nM

## GCUGCAAGGGCAGGAUAUGGGUUCAGAGCGGAAGUGCGCUUUGAUACAUGAGGAUCACCCAUGUCCCAGAAGGGCCCAAACGGC [Beanti] (Eterna round: R96, puzzle: Same State NG 2)
Input ligand: FMN 200 uM
  apparent KD of MS2 coat protein: 17.3 nM
[1]
  apparent KD of MS2 coat protein: 99.3 nM
Input ligand: none
  apparent KD of MS2 coat protein: 123 nM

## GCUUCACAUGAGGAUCACCCAUGUCUUCGGAGUCGAGGAUAUGGUCACUGUAAACAGUGGCCAGAAGGCGAGGAGC [SS1 - Son of Teenbexe v7] (puzzle: Same State 1)
[2]
  apparent KD of MS2 coat protein: 46.4 nM

## GGAAUAUGAUGUUACAUGAGGAUCACCCAUGUAGUGACAACUAAGGAUAUCUGAAAAGAAGGAGAGGAGAAGGUAGGAUCAUAA [AK SSNG3-V2-14.1] (Eterna round: R96, puzzle: Same State NG 3)
Input ligand: FMN 200 uM
  apparent KD of MS2 coat protein: 25.7 nM
[1]
  apparent KD of MS2 coat protein: 23.1 nM
Input ligand: none
  apparent KD of MS2 coat protein: 36 nM

## GGAAUAUUUACAGGAUAUGAGUUGUAAAGUCGAUCAGAAGGGUAGGUGUCUUGCACGGUGUGUUACAUGAGGAUCACCCAUGUU [SameState NG1 #21] (Eterna round: R96, puzzle: Same State NG 1)
Input ligand: FMN 200 uM
  apparent KD of MS2 coat protein: 156 nM
[1]
  apparent KD of MS2 coat protein: 116 nM
Input ligand: none
  apparent KD of MS2 coat protein: 128 nM

## GGACGUCAUCUCACUGAUUAAACAUGAGGAUCACCCAUGUCACAGGAUAUGAGUCCGAUUAGGACUCAGAAGGGUGUGACGUCC [Fiskers NG3ss - 45] (Eterna round: R96, puzzle: Same State NG 3)
Input ligand: FMN 200 uM
  apparent KD of MS2 coat protein: 20.7 nM
[1]
  apparent KD of MS2 coat protein: 14.6 nM
Input ligand: none
  apparent KD of MS2 coat protein: 22.9 nM

## GGAGAACAUGAGGAUCACCCAUGUGAGCGGUAGCUAGGAUAUGCGGGAAGGAAGAGAGAAGCAGAAGGAGUCGGUA [JR_SS1_Sub033] (puzzle: Same State 1)
[2]
  apparent KD of MS2 coat protein: 34.2 nM

## GGAGAACAUGAGGAUCACCCAUGUGGAUGAGCGCUAGGAUAUGCGGGAGGGUGAAGAGAAGCAGAAGGAGUAGAUA [JR_SS1_Sub034] (puzzle: Same State 1)
[3]
  apparent KD of MS2 coat protein: 63.9 nM
[2]
  apparent KD of MS2 coat protein: 99.6 nM
[4]
  apparent KD of MS2 coat protein: 180 nM

## GGAGCCAAGGCAGGAUAUUCAUAUUAAUAACACAUGAGGAUCACCCAUGUGGCCAGAAGGCCAAGGGAGAAGGGCCAUGGCUCG [Xeonanis - 13 mod11] (Eterna round: R96, puzzle: Same State NG 2)
Input ligand: FMN 200 uM
  apparent KD of MS2 coat protein: 22.1 nM
[1]
  apparent KD of MS2 coat protein: 65.4 nM
Input ligand: none
  apparent KD of MS2 coat protein: 159 nM

## GGAGCCGAUACUGAGGAUAUUCAUAUUAAAACAUGAGGAUCACCCAUGUAGGCCAGAAGGCCUUGGGAGAAGGCAGAUCGGCUCC [Biseusra - 4] (Eterna round: R96, puzzle: Same State 2)
Input ligand: FMN 200 uM
  apparent KD of MS2 coat protein: 21 nM
[1]
  apparent KD of MS2 coat protein: 207 nM
Input ligand: none
  apparent KD of MS2 coat protein: 358 nM

## GGAGCCGAUACUGAGGAUAUUCAUAUUAAAACAUGAGGAUCACCCAUGUAGGCCAGAAGGCCUUGGGAGAAGGCAGAUCGGCUCC [Biseusra - 4] (puzzle: Same State 2)
[3]
  apparent KD of MS2 coat protein: 19.5 nM
[2]
  apparent KD of MS2 coat protein: 301 nM
[4]
  apparent KD of MS2 coat protein: 450 nM

## GGAGCCGGCACUGAGGAUAUUCGUAUUAAAACAUGAGGAUCACCCAUGUAGGCCAGAAGGCCUUGGGAGAAGGCAGGUCGGCCCG [Bibimoar - 5] (puzzle: Same State 2)
[3]
  apparent KD of MS2 coat protein: 12.5 nM
[2]
  apparent KD of MS2 coat protein: 33.9 nM
[4]
  apparent KD of MS2 coat protein: 46.4 nM

## GGAGCCGGCCUAGGAUAUUUCAUAAAACAACAUGAGGAUCACCCAUGUAGGCCAGAAGGCCUUGGGAAGAAGGAGGUCGGCUCC [Loop Effect - C28] (Eterna round: R96, puzzle: Same State NG 2)
Input ligand: FMN 200 uM
  apparent KD of MS2 coat protein: 10.2 nM
[1]
  apparent KD of MS2 coat protein: 19.7 nM
Input ligand: none
  apparent KD of MS2 coat protein: 28.4 nM

## GGAGCCGGCCUAGGAUAUUUCAUACAAAAACAUGAGGAUCACCCAUGUAGGCCAGAAGGCCUUGGGAAGAAGGAGGUCGGCUCC [Loop Effect - C25] (Eterna round: R96, puzzle: Same State NG 2)
Input ligand: FMN 200 uM
  apparent KD of MS2 coat protein: 14.5 nM
[1]
  apparent KD of MS2 coat protein: 16.9 nM
Input ligand: none
  apparent KD of MS2 coat protein: 34.2 nM

## GGAGCCGGCCUAGGAUAUUUCAUAUAAAUACAUGAGGAUCACCCAUGUAGGCCAGAAGGCCUUGGGAAGAAGGAGGUCGGCUCC [Loop Effect - U25,U29] (Eterna round: R96, puzzle: Same State NG 2)
Input ligand: FMN 200 uM
  apparent KD of MS2 coat protein: 13 nM
[1]
  apparent KD of MS2 coat protein: 20.4 nM
Input ligand: none
  apparent KD of MS2 coat protein: 31.5 nM

## GGAGCCGGCCUAGGAUAUUUCAUUAAUAAACAUGAGGAUCACCCAUGUAGGCCAGAAGGCCUUGGGAAGAAGGAGGUCGGCUCC [Loop Effect - U24,U27] (Eterna round: R96, puzzle: Same State NG 2)
Input ligand: FMN 200 uM
  apparent KD of MS2 coat protein: 21.2 nM
[1]
  apparent KD of MS2 coat protein: 24.5 nM
Input ligand: none
  apparent KD of MS2 coat protein: 37.7 nM

## GGAGCCGGUACUGAGGAUAUUCAUUUUAAAACAUGAGGAUCACCCAUGUAGGCCAGAAGGCCUUGGGAGAAGGCAGACCAGCUCG [Atgexeedri - 6] (puzzle: Same State 2)
[3]
  apparent KD of MS2 coat protein: 20.9 nM
[2]
  apparent KD of MS2 coat protein: 217 nM
[4]
  apparent KD of MS2 coat protein: 369 nM

## GGAGCCGGUACUGAGGAUAUUCGUAUUAAAACAUGAGGAUCACCCAUGUAGGCCAGAAGGCCUUGGGAGAAGGCAGACCAGCUCG [Atgexeedri - 5] (puzzle: Same State 2)
[3]
  apparent KD of MS2 coat protein: 14.3 nM
[2]
  apparent KD of MS2 coat protein: 26 nM
[4]
  apparent KD of MS2 coat protein: 40.5 nM

## GGAGCCUGCACUGAGGAUAUUCAUAGUGUAACAUGAGGAUCACCCAUGUGUCGCCGUAGCGACUGGGAGAAGGCAGUGCGGCUCG [JL-ss2-3.06 ViennaUCT mod] (puzzle: Same State 2)
[3]
  apparent KD of MS2 coat protein: 38.4 nM
[2]
  apparent KD of MS2 coat protein: 180 nM
[4]
  apparent KD of MS2 coat protein: 325 nM

## GGAGCCUGCACUGAGGAUAUUCAUAUUUAAACAUGAGGAUCACCCAUGUAGGCCAGAAGGCCUUGGGAGAAGGCAGGUCGGCUCG [salish99_ss2_r3_083] (puzzle: Same State 2)
[3]
  apparent KD of MS2 coat protein: 35.3 nM
[2]
  apparent KD of MS2 coat protein: 372 nM
[4]
  apparent KD of MS2 coat protein: 780 nM

## GGAGGACAUGAGGAUCACCCAUGUGGAUGAUCGCUAGGAUAUGCGUAAAGGAGGAGUGGUGCAGAAGGAGUGGGAU [JR_SS1_Sub050] (puzzle: Same State 1)
[2]
  apparent KD of MS2 coat protein: 261 nM

## GGAGGAUGAGCGUAGGAUAUAGGAGGAGUGACAUGAGGAUCACCCAUGUGGUAGGAGGGAGGGUACUAGAAGGACGAGGAAGAGG [JR_SS2_Sub070] (puzzle: Same State 2)
[3]
  apparent KD of MS2 coat protein: 54.6 nM
[2]
  apparent KD of MS2 coat protein: 64.5 nM
[4]
  apparent KD of MS2 coat protein: 74.5 nM

## GGCACAGCGUGAGGAUAUCGGUACGCACGUAGUCGAGAAGGUACCUGAAAUGGUACACAUGAGGAUCACCCAUGUGACUGGGCA [Eternabot solution 14] (Eterna round: R96, puzzle: Same State NG 1)
Input ligand: FMN 200 uM
  apparent KD of MS2 coat protein: 40.7 nM
[1]
  apparent KD of MS2 coat protein: 27.1 nM
Input ligand: none
  apparent KD of MS2 coat protein: 41.6 nM

## GGCAGGUGCAGGCUUGCUUGCACCUGGAAACAUGAGGAUCACCCAUGUUUGGGACAAGCUUUGCUCUUCGUCUUUUC [JL ViennaUCT Isusreraar mod 5] (puzzle: Sensor for hsa-mir-208a)
[3]
  apparent KD of MS2 coat protein: 43.7 nM
[2]
  apparent KD of MS2 coat protein: 55.1 nM
[4]
  apparent KD of MS2 coat protein: 54.2 nM

## GGCCUCUGUCAAGGAUAUGCUACCGUUUCGGUAGCAGAAGGUGAUCACAUGAGGAUCACCCAUGUUUAGGCCCUCUGGCCCGCC (Eterna round: R96, puzzle: Same State NG 1)
Input ligand: FMN 200 uM
  apparent KD of MS2 coat protein: 114 nM
[1]
  apparent KD of MS2 coat protein: 330 nM
Input ligand: none
  apparent KD of MS2 coat protein: 138 nM

## GGCCUCUGUCAAGGAUAUGCUACCGUUUCGGUAGCAGAAGGUGAUCACAUGCGGGUCACCCAUGUUUAGGCCCUCUGGCCCGCC (Eterna round: R96, puzzle: Same State NG 1)
Input ligand: FMN 200 uM
  apparent KD of MS2 coat protein: 19.1 nM
[1]
  apparent KD of MS2 coat protein: 10.2 nM
Input ligand: none
  apparent KD of MS2 coat protein: 18.6 nM
